Laboratory results published in US20240018513A1, “SYNTHETIC INTRONS FOR TARGETED GENE EXPRESSION” (FRED HUTCHINSON CANCER CENTER, priority 2020, published 2024).
Substitutions are numbered along the chain they refer to.

B1: intron_control: 250 nt parent synthetic intron from MTERFD3 intron 1 (first 100 and last 150 nt); SEQ ID NO 63/71 (nucleic acid)
DNA 1: GTGAGTCGCCCCCTTCCTCTGCTCCTGGGCGTGTTCCTCACCAGCGGCGCCGCAGCGGTCAGGGCCCGCAAAACCCCACGCCTCGCCAGACGCTCAGCTCCAGGAAGCAAATGCAGCTGGTGCAGGAGAGGGAAATGGGAATTAGGGTGGTGGCAGAGCCCAAAGAGGCCTTGTAGGCCATGGTAAGGCATTTCTATGTTTTATTTTACTTTGTCTTTATCCTAAAATGCCATTGGCAAGTTTATTGCAG
DNA 2: B1 DNA 1
B2: intron_13121: 150 nt control synthetic intron, GT_to_CC + AG_to_CC splice site mutations; SEQ ID NO 56/64 (nucleic acid)
DNA 1: CCGAGTCGCCCCCTTCCTCTGCTCCGAGAGGGAAATGGGAATTAGGGTGGTGGCAGAGCCCAAAGAGGCCTTGTAGGCCATGGTAAGGCATTTCTATGTTTTATTTTACTTTGTCTTTATCCTAAAATGCCATTGGCAAGTTTATTGCCC
DNA 2: B2 DNA 1
B3: intron_8499: 150 nt synthetic intron, 89/95/102/107 AtoG branchpoint ablation; SEQ ID NO 61/69 (nucleic acid)
DNA 1: B2 DNA 1 with C1G, C2T, A90G, A96G, A103G, A108G, C149A, C150G
DNA 2: B2 DNA 1 with C1G, C2T, A90G, A96G, A103G, A108G, C149A, C150G
B4: intron_2790: 150 nt synthetic intron, mutation 148_AtoG (canonical 3′ss); SEQ ID NO 59/67 (nucleic acid)
DNA 1: B2 DNA 1 with C1G, C2T, C149G, C150G
DNA 2: B2 DNA 1 with C1G, C2T, C149G, C150G
B5: intron_4095: 150 nt synthetic intron, 138_AtoC-139_GtoC (cryptic 3′ss at −11 removed); SEQ ID NO 60/68 (nucleic acid)
DNA 1: B2 DNA 1 with C1G, C2T, A139C, G140C, C149A, C150G
DNA 2: B2 DNA 1 with C1G, C2T, A139C, G140C, C149A, C150G
B6: intron_9600: 158 nt synthetic intron, insertion 89_TACTAACA consensus branchpoint; SEQ ID NO 62/70 (nucleic acid)
DNA 1: GTGAGTCGCCCCCTTCCTCTGCTCCGAGAGGGAAATGGGAATTAGGGTGGTGGCAGAGCCCAAAGAGGCCTTGTAGGCCATGGTAAGGCTACTAACAATTTCTATGTTTTATTTTACTTTGTCTTTATCCTAAAATGCCATTGGCAAGTTTATTGCAG
DNA 2: B6 DNA 1
B7: intron_2258: 100 nt MTERFD3 intron 1-derived synthetic intron, deletion 15to65; SEQ ID NO 57/65 (nucleic acid)
DNA 1: GTGAGTCGCCCCCTTAGGCCTTGTAGGCCATGGTAAGGCATTTCTATGTTTTATTTTACTTTGTCTTTATCCTAAAATGCCATTGGCAAGTTTATTGCAG
DNA 2: B7 DNA 1
modifications: expressed or natural sequence

Tests used:
Format in all cases: cell-based
SF3B1-mutant K562 cells = assay: Mini-screen: pooled synthetic intron mini-library in HSV-TK, GCV treatment, full-length intron sequencing from genomic DNA; settings: for fold-change (estimated fold-change in intron abundance in gDNA): genotype K700E (SF3B1+/K700E) K562, GCV 100 ug/mL, day 6, vector hPGK-PuroR-P2A-HSV-TK
From the text: (§1) Therefore, a massively parallel splicing assay was developed to map and functionally interrogate key sequence features within the synthetic intron. First, a pilot mini-library of eight synthetic introns was synthesized, seven of which were much shorter (lengths of 100-158 nt) than the parent synthetic intron (synMTERFD3i1-250), and each with one or more perturbations to potentially critical features (FIG. 2E). This mini-library was cloned into HSV-TK, introduced into WT or SF3B1-mutant K562 cells with a lentiviral vector at a low multiplicity of infection, and treated with GCV. Relative depletion of each construct was measured by high-throughput sequencing of the entire introns from genomic DNA after six days of treatment (TABLE 1).
(§2) Each synthetic intron used in the mini-library was ordered individually as a gBlock (Integrated DNA Technologies), consisting of the desired intron flanked by homology arms for cloning (5′ arm: […] (SEQ ID NO:158); 3′ arm: […] (SEQ ID NO:159; TABLE 3). The gBlocks were then mixed in equal proportions before being cloned into hPGK-PuroR-P2A-HSV-TK using a previously published strategy for pooled cloning (Thomas, J. D. et al. RNA isoform screens uncover the essentiality and tumor-suppressor activity of ultraconserved poison exons. Nature genetics 52, 84-94 (2020), incorporated herein by reference in its entirety). This intron mix was then amplified using NEBNext High Fidelity Ready Mix (New England Biolabs) and purified using 1.8×AMPure XP SPRI beads (Beckman Coulter). The backbone for the library was amplified using Q5 polymerase (New England Biolabs). The library was transformed and amplified using Endura ElectroCompetent Cells (Lucigen, 60242-2) and large LB plates. The library was maxiprepped using a Macherey-Nagel MaxiPrep kit (Thermo Fisher Scientific, Cat 740414.10).
(§3) WT or SF3B1-mutant K562 cells were infected with lentivirus encoding the mini-library at an MOI of 0.3 and untreated or treated with GCV (100 ug/mL) for 6 days. Genomic DNA was collected at day 6 and the resulting Illumina libraries were sequenced with 2×150 bp reads (Illumina MiSeq). Depletion/enrichment of each construct was estimated as follows. For each sample, reads were normalized to the total reads mapped. The relative fraction of reads mapping to each intron was then estimated by dividing the numbers of normalized reads mapped to an intron by the total reads mapped in the sample. The standard deviation was calculated using the sample proportion P for each intron (σ=sqrt [P(1−P)/n]). A fold-change was calculated for each intron by dividing the proportion of the intron in the treated GCV samples by the fraction of the intron in the untreated samples. Error propagation was used to estimate the standard deviation. The final relative fold-changes were computed by normalizing fold-changes such that the fold-change of synMTERFD3i1-250 in the pilot screen was identical to the experimentally measured fold-change in a single-construct experiment (FIG. 2C, 100 μg/mL of GCV).

WT K562 cells = assay: as above; settings: genotype WT (SF3B1+/+) K562; GCV 100 ug/mL; day 6; vector hPGK-PuroR-P2A-HSV-TK
From the text: as §1, §2, §3

[1] = test system: isogenic WT or SF3B1-mutant K562 cells; assay: Fluorescent reporter (mEmerald interrupted by synthetic intron, mCardinal control), flow cytometry
From the text: These six endogenous introns served as starting points for the development of synthetic introns that functioned as compact and modular molecular switches. […] These choices were guided by the increased complexity of the 3′ss versus 5′ss, SF3B1's functional role in 3′ss recognition, and the importance of exon length in splicing. Each split mEmerald sequence was cloned into a vector with constitutive expression of the non-overlapping fluorophore mCardinal (FIG. 1E). The resulting vectors permitted quantitative assessment of mutation-dependent protein production by measuring the ratio of mEmerald to mCardinal in cells with or without an SF3B1 mutation via flow cytometry.
Each construct was transfected into isogenic WT or SF3B1-mutant K562 cells and mutation-dependent splicing and protein production was measured. […] Mutation-dependent protein production arose from mutation-dependent splicing changes, as designed (FIGS. 6G and 6H). These proof-of-principle studies confirmed the feasibility of using synthetic introns for mutation-dependent gene expression. […]

[2] = test system: isogenic WT or SF3B1-mutant K562 cells; assay: Single-construct cell viability (CellTiter-Glo, ATP) of cells expressing HSV-TK with synthetic intron, GCV treatment; settings: 0-100 μg/mL GCV, 3 days
From the text: This split HSV-TK sequence or an intronless HSV-TK was cloned into a lentiviral expression vector. Isogenic WT or SF3B1-mutant K562 cells were infected. Positive integrants were selected and treated with GCV (FIG. 2B).
Stable cell lines were made by transducing K562 or MCF10A cells with lentivirus at multiplicities of infection (MOIs) of 1 (FIGS. 2C, 2G, and 2H), 0.3 (mini-library), and 0.1 (full library). Positive integrants were selected by treating with puromycin (hPGK-PuroR-P2A-HSV-TK) or flow sorting for mCherry (hPGK-HSV-TK-P2A-mCherry).
Cell viability was measured for single-construct experiments in cell culture by the CellTiter-Glo Luminescent Cell Viability Assay (Promega). For FIG. 2C, K562 cells expressing HSV-TK with the indicated synthetic introns were seeded at a density of 10,000 cells/100 μL/well in a 96-well plate in biological triplicate, and then treated with 0-100 μg/mL GCV or untreated (negative control). Viability measured after 3 days of treatment. For FIG. 2G, K562 cells expressing HSV-TK with the indicated synthetic introns were seeded at a density of 5,000 cells/100 μL/well in 96-well plate in biological triplicate, and then treated with 100 μg/mL GCV or PBS (negative control). Viability was measured after 11 days of treatment.

Row | Molecule | depletion / mutation responsiveness in mini-screen (SF3B1-mutant K562 cells; SF3B1-mutant vs WT K562, GCV, six days) | fold-change (estimated fold-change in intron abundance in gDNA) (SF3B1-mutant K562 cells) | fold-change (estimated fold-change in intron abundance in gDNA) (WT K562 cells) | mutation-dependent specificity [1] [fold] | viability upon GCV treatment ([2]; SF3B1-mutant K562 cells) | viability upon GCV treatment ([2]; WT K562 cells)
1 | B1 | markedly depleted in SF3B1-mutant, but not WT, cells | 0.23 | 0.96 | 2 | a rapid and dose-dependent loss of viability, indistinguishable to that caused by intronless HSV-TK | no significant differences in viability from untransduced cells
2 | B2 |  | 0.8961 | 1.226 |  |  | 
3 | B3 |  | 0.2767 | 1.15 |  |  | 
4 | B4 |  | 0.7611 | 1.042 |  |  | 
5 | B5 |  | 0.2637 | 0.3305 |  |  | 
6 | B6 |  | 0.2356 | 1.112 |  |  | 
7 | B7 |  | 0.4996 | 1.279 |  |  | 
